Here are results for one sequence from paper PMC6105893.

This data set concerns the target T1, LeuO (rLeuO) (Vibrio vulnificus MO6-24/O?) (UniProt A0A087INQ4).
T1 sequence: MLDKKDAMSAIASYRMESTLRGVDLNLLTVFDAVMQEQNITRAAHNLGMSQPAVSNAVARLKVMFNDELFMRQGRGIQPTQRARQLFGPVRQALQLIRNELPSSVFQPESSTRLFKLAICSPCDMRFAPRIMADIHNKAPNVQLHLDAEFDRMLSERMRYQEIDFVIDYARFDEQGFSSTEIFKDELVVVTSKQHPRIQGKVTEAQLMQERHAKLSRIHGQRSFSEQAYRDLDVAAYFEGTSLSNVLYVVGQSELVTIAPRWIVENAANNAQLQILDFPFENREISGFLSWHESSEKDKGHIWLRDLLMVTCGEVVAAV
The data set can be described thus: EMSA. Conditions: 10 mM Tris-HCl pH 7.4, 10 mM KCl, 1 mM EDTA, 0.1 mM DTT, 50 ug/ml BSA, 5% glycerol, 1 ug poly(dI-dC), 10 ng probe in 20 ul, 30 min at 37 C; 6% neutral …. (In general: In EMSA bound probe runs differently from free probe, usually more slowly.)

As to “GAGTTTGACGCTAAAAAATAGTGATGTGCAGCAAAAATAAGTAAAAGTTTACGCTGATAGGCTCGAAAAGGCTTGTCAGCGTTTTTTTTGGGAGCTAAGTTAGAGCTCGATGGCTGCCAGCCCTTTTAAGATAAGGCTTGGCGCTAATTTTTAGTATTAATGGAACGAAAGTCATCTAAAAAAATAATCACAGATGGCACAAAGGGGAATCACAGTGAACAAAACTCAACTAGTAGAATCAATCGCTGCAAACGCAGAT (double strand) [vhuB upstream region]”, the binding entry is “binds”.
